Reference: PMC4003281

Target: DegP^S210A/R207P (Escherichia coli) (UniProt P0C0V0)
Experiment: fluorescence polarisation

**Q.** With “^flC18–58, fluorescent peptide derived from residues 18–58 of lysozyme” as the substance, how does the Kd read?
**A.** 1.7 µM
